Experimental data reported in patent US20200399344A1 (SHATTUCK LABS, published 2020).
Read-outs that look alike come from different tables or passages of the source.

T1: hCD2 expressed on CHO-K1/hCD2 cells (human, UniProt P06729 25-351)
T1 construct: whole, on cells
T1 sequence (looked up): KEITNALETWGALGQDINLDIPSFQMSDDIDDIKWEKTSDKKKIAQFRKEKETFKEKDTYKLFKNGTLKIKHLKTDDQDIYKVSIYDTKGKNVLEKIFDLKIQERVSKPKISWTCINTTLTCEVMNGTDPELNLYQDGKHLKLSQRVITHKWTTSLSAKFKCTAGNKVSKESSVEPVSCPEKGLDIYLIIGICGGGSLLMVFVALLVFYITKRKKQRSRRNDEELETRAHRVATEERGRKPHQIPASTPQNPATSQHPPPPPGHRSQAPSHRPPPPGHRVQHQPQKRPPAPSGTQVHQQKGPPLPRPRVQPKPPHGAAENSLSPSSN

T2: recombinant human 2B4 protein (rh2B4-His) (human, UniProt Q9BZW8-2 22-221, limits assumed)
T2 construct: also called recombinant 2B4-His protein; not shown: His tag
T2 sequence (looked up): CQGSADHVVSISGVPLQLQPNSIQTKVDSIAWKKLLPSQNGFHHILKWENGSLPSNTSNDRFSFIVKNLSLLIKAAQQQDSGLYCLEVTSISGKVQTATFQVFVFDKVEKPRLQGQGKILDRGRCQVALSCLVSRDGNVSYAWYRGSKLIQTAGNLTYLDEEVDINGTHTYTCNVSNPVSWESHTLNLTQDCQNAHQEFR

T3: recombinant human SLAMF6-Fc (rhSLAMF6-Fc) protein (human, UniProt Q96DU3 22-226)
T3 construct: not shown: Fc
T3 sequence (looked up): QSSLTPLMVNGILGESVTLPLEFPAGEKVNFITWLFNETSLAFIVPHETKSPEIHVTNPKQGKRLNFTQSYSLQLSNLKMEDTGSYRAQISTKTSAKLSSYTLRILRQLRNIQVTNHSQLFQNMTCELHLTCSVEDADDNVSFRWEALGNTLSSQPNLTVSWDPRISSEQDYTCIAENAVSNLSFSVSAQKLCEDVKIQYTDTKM

B1: human CD58-Fc-NKG2A chimeric protein (Fc fusion)
chain: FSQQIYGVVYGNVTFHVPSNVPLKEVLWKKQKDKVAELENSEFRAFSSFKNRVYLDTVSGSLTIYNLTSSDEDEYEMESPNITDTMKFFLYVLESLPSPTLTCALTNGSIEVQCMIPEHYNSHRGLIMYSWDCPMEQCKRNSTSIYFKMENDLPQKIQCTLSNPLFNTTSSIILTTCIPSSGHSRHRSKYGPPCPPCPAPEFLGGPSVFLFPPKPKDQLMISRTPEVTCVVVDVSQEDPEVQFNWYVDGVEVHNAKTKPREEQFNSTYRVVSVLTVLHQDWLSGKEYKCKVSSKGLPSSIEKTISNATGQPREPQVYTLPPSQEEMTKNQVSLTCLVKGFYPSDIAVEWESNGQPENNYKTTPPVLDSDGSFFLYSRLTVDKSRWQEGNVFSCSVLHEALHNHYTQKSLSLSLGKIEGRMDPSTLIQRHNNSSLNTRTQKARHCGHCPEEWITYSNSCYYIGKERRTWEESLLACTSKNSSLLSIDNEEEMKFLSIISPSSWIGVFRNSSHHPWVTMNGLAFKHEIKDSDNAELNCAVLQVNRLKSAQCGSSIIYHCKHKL
notes: also called hCD58-Fc-NKG2A
B2: human TGFBR2-Fc-NKG2A chimeric protein (Fc fusion)
chain: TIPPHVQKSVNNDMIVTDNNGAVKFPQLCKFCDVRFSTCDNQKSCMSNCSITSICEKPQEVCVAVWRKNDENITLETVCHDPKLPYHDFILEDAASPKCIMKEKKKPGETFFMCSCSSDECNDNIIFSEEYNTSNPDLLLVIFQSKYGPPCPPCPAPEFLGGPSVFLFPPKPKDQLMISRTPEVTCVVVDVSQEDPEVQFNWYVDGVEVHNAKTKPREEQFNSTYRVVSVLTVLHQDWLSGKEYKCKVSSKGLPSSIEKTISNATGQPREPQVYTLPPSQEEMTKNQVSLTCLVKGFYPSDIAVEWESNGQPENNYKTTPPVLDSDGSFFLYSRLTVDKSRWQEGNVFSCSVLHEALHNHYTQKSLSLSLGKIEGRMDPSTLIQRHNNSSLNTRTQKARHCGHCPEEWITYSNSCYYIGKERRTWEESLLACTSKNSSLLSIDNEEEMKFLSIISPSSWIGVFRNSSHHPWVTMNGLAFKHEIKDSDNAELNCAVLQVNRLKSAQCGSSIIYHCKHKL
notes: also called hTGFBR2-Fc-NKG2A
B3: recombinant human CD2 protein (rhCD2-His) (receptor, UniProt P06729 25-209, looked up)
chain: KEITNALETWGALGQDINLDIPSFQMSDDIDDIKWEKTSDKKKIAQFRKEKETFKEKDTYKLFKNGTLKIKHLKTDDQDIYKVSIYDTKGKNVLEKIFDLKIQERVSKPKISWTCINTTLTCEVMNGTDPELNLYQDGKHLKLSQRVITHKWTTSLSAKFKCTAGNKVSKESSVEPVSCPEKGLD
notes: also called recombinant CD2 protein; not shown: His tag
B4: recombinant human CD48-Fc (rhCD48-Fc) protein (Fc fusion, UniProt P09326 27-220, looked up)
chain: QGHLVHMTVVSGSNVTLNISESLPENYKQLTWFYTFDQKIVEWDSRKSKYFESKFKGRVRLDPQSGALYISKVQKEDNSTYIMRVLKKTGNEQEWKIKLQVLDPVPKPVIKIEKIEDMDDNCYLKLSCVIPGESVNYTWYGDKRPFPKELQNSVLETTLMPHNYSRCYTCQVSNSVSSKNGTVCLSPPCTLARS
notes: Comparator; not shown: Fc
B5: recombinant human CD58-Fc fusion protein (rhCD58-Fc) (Fc fusion, UniProt P19256 29-215, looked up)
chain: FSQQIYGVVYGNVTFHVPSNVPLKEVLWKKQKDKVAELENSEFRAFSSFKNRVYLDTVSGSLTIYNLTSSDEDEYEMESPNITDTMKFFLYVLESLPSPTLTCALTNGSIEVQCMIPEHYNSHRGLIMYSWDCPMEQCKRNSTSIYFKMENDLPQKIQCTLSNPLFNTTSSIILTTCIPSSGHSRHR
notes: Positive control; also called recombinant hCD58-Fc protein; not shown: Fc
B6: human SLAMF6-Fc-NKG2A chimeric protein (Fc fusion)
chain: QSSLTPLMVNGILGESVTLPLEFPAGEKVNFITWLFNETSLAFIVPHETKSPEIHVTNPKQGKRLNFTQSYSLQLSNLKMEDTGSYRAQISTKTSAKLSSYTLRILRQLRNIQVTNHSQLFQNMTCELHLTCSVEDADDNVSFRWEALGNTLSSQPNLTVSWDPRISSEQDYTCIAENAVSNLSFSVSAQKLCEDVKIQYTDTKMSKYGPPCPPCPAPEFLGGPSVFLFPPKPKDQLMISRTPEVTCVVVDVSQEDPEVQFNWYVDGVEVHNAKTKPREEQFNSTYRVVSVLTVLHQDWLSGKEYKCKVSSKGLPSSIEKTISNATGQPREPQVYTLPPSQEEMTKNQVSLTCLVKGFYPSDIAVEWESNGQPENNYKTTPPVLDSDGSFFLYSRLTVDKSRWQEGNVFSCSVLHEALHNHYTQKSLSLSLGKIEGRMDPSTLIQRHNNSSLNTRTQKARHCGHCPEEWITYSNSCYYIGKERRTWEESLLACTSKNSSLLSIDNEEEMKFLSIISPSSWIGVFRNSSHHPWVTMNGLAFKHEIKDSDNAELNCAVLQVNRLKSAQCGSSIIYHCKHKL
notes: also called hSLAMF6-Fc-NKG2A

Experiments:
[1] = target: T4, recombinant HLA-E-His protein (human, UniProt P13747 22-305, limits assumed); assay: ELISA: the chimeric protein is the titrated coat (1:3), detection HLA-E-His (Novus NBP2-47435PEP), HRP Anti-6x-His-HRP
T4 construct: also called recombinant HLA-E (HLA-E-His); not shown: His tag
Protocol: (§1) In a complementary experiment, increasing amounts of the hCD48-Fc-NKG2A, hCD58-Fc-NKG2A, and hCD80-Fc-NKG2A chimeric proteins or a negative control protein was coated on plates. Recombinant HLA-E-His protein was added to the plates for capture by the plate-bound chimeric proteins or the negative control protein. The captured HLA-E-His protein was detected using an anti-6×-His-HRP antibody.

[2] = target: T1, hCD2 expressed on CHO-K1/hCD2 cells; assay: flow cytometry cell binding assay, CHOk1 cells, axis label GEO Mean - PE MFI
[3] = target: T4, recombinant HLA-E-His protein; assay: ELISA: the chimeric protein is the titrated coat (1:3), detection HLA-E-His (Novus NBP2-47435PEP), HRP Anti-6x-His-HRP; remark: listed apart in the source
Protocol: as §1, with “Similarly,” for “In a complementary experiment,”, “hTGFBR2-Fc-NKG2A” for “hCD48-Fc-NKG2A, hCD58-Fc-NKG2A,”, “hSLAMF6-Fc-NKG2A chimeric proteins” for “hCD80-Fc-NKG2A”

[4] = target: T5, anti-human IgG antibody (plate-bound); assay: ELISA (single sided Fc): coat Anti-Human IgG (H+L) Jax# 109-005-088, detection HRP Goat anti-human FCgamma
T5 construct: also called anti-human Fc antibody
Protocol: Anti-human IgG was coated on plates and increasing amounts of the indicated chimeric proteins were added to the plates. hIgG was used as a positive control, and mCD80-Fc-NKG2A was used as a negative control. The binding was detected using an anti-human Fcgamma HRP.
To understand whether the Fc linkers from the native chimeric proteins can be accessed by anti-human antibodies, ELISA-based assays were performed. For these assays, an anti-human IgG antibody was coated on plates and increasing amounts of the hCD86-Fc-NKG2A and hTGFBR2-Fc-NKG2A, mCD80-Fc-NKG2a chimeric proteins, and a human IgG antibody were added to the plates for capture by the plate-bound anti-human antibody. The human IgG antibody was used as a positive control and to generate a standard curve. The mCD80-Fc-NKG2a chimeric protein was included as a negative control as containing a non-human Fc domain. The protein bound to the anti-human IgG antibody was detected using an anti-human Fcgamma HRP.

[5] = target: B5; assay: ELISA: coat rhCD2-His (Acro CD2-H5226), detection Anti-hFc-HRP
Protocol: (§2) Recombinant human CD2 (rhCD2) protein was coated on plates. Increasing amounts of the indicated chimeric proteins or Recombinant human CD58-Fc fusion protein (rhCD58-Fc) were added and detected using an anti-mFc-HRP (for mCD80-Fc-NKG2A) or anti-hFc-HRP (for rest of the proteins).
(§3) CD2 is a transmembrane protein in T cells that binds to its ligand CD58 on APC in humans and on CD48 in rodents. To understand whether the CD48 and CD58 parts of the hCD48-Fc-NKG2A, and hCD58-Fc-NKG2A chimeric protein can bind CD2, ELISA-based assays were performed. Briefly, recombinant human CD2 protein (rhCD2-His) was coated on plates and increasing amounts of the hCD48-Fc-NKG2A, hCD58-Fc-NKG2A, and mCD80-Fc-NKG2A chimeric proteins and recombinant hCD58-Fc protein was added to the plates for capture by the plate-bound recombinant CD2 protein. The […] chimeric protein served as a negative control and recombinant hCD58-Fc protein served as a positive control. The hCD48-Fc-NKG2A and hCD58-Fc-NKG2A, chimeric proteins and recombinant hCD58-Fc protein bound to the recombinant CD2 protein was detected using an anti-human Fc HRP. The mCD80-Fc-NKG2A chimeric protein bound to the recombinant CD2 protein was detected using an anti-mouse Fc HRP.

[6] = target: T2, recombinant human 2B4 protein …; assay: ELISA: coat rh2B4-His (Sino 10042-H08H), detection Anti-hFc-HRP
Protocol: Increasing amounts of the indicated chimeric proteins or rhCD48-Fc were added and detected using an anti-mFc-HRP (for mCD80-Fc-NKG2A) or anti-hFc-HRP (for rest of the proteins).
CD48 is the ligand for 2B4. To understand whether the CD48 parts of the hCD48-Fc-NKG2A chimeric protein can bind 2B4, ELISA-based assays were performed. Briefly, recombinant human 2B4 protein (rh2B4-His) was coated on plates and increasing amounts of the hCD48-Fc-NKG2A and mCD80-Fc-NKG2A chimeric proteins and recombinant human CD48-Fc (rhCD48-Fc) protein was added to the plates for capture by the plate-bound recombinant 2B4 protein. The hCD48-Fc-NKG2A chimeric protein and recombinant human CD48-Fc (rhCD48-Fc) protein bound to the recombinant 2B4 protein was detected using an anti-human Fc HRP. The mCD80-Fc-NKG2A chimeric protein, which was used as a negative control, bound to the recombinant 2B4 protein was detected using an anti-mouse Fc HRP.

[7] = target: B3; assay: ELISA: coat rhCD2-His (Acro CD2-H5226), detection Anti-hFc-HRP
Protocol: as §2, §3

[8] = target: T3, recombinant human SLAMF6-Fc …; assay: dual ELISA; coat rhSLAMF6-Fc, hSLAMF6-Fc-NKG2a titrated, detection HLA-E-His, Anti-His-6x-HRP; the signal needs both bindings
Protocol: Increasing amounts of the hSLAMF6-Fc-NKG2A chimeric protein was added and detected using HLA-E-His. A chimeric protein comprising ECD of a type II transmembrane protein other than NKG2A was used as a negative control.
To understand whether the hSLAMF6-Fc-NKG2A chimeric protein can binds simultaneously to both hSLAMF6 and HLA-E, the following ELISA experiment was carried out. Briefly, and recombinant hSLAMF6 (rhSLAMF6-Fc) protein was coated on plates. Increasing amounts of the hSLAMF6-Fc-NKG2A chimeric protein was added to the plates for capture by the recombinant human SLAMF6-Fc (rhSLAMF6-Fc) protein. Further, recombinant HLA-E (HLA-E-His) protein was added to the plate for capture by hSLAMF6-Fc-NKG2A chimeric protein. The binding of the HLA-E-His protein was detected using an anti-His 6× HRP antibody.

T4 sequence (P13747 22-305 limits assumed): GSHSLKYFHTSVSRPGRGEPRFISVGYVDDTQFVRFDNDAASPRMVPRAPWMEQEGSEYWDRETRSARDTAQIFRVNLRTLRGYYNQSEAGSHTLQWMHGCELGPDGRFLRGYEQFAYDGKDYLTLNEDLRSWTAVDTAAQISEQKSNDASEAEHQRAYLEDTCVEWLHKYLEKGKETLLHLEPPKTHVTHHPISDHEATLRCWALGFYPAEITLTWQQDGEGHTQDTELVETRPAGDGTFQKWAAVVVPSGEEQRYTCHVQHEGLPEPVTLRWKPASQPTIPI

Binder: B1
EC50 (read off the curve) [1]: ~0.7 µg/mL
EC50 (read off the curve) [2]: ~1 µg/mL

Binder: B2
EC50 (read off the curve) [3]: ~5 µg/mL
EC50 (read off the curve) [4]: ~10 µg/mL

Binder: B3
binding result [5]: binds

Binder: B4
binding result [6]: binds

Binder: B5
EC50 (read off the curve) [7]: ~1 µg/mL

Binder: B6
EC50 (read off the curve) [3]: ~6 µg/mL
EC50 (read off the curve) [8]: ~30 µg/mL
